Assay results from paper PMC9596850, “Tonsillar Microbiome‐Derived Lantibiotics Induce Structural Changes of IL‐6 and IL‐21 Receptors and Modulate Host Immunity” (Advanced Science, 2022).

Experiments:
Conditions in all cases: both partners purified
[1] = target: T1, murine IL-6 receptor subunit alpha (mouse, UniProt P22272 20-364); assay: SPR; Biacore 8K; murine IL-6Rα or IL-21R (20 nM) immobilised on a CM5 chip by amine coupling, 25 °C, PBS-P running buffer; analytes with 5% DMSO injected serially (salivaricin B and mutants 12.5-800 µM; mIL-6 0.003125-0.1 µM; mIL-21 0.625-5 nM); KD of salivaricins from a steady-state affinity model
T1 construct: also called IL-6Rα; mIL-6R; source: bought: abcam
T1 sequence (looked up): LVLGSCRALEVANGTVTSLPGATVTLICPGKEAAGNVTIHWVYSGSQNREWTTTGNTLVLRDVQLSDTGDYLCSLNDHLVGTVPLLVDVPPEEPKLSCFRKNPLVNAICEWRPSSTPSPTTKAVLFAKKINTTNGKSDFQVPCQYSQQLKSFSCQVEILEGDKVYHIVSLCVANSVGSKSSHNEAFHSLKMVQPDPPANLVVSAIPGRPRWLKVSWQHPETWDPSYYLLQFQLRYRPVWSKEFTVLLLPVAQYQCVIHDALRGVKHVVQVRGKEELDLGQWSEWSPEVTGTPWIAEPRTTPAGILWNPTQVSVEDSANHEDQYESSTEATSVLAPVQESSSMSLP

murine IL-21 receptor = target: T2, murine IL-21 receptor (mouse, UniProt Q9JHX3 20-237); assay: as above
T2 construct: also called mIL-21R; Mouse IL-21R; source: bought: Sino Biological

[2] = target: T3, recombinant mouse IL-6 receptor subunit alpha protein with the Fc region of mouse IgG2a (mouse, UniProt P22272 20-364); assay: SPR; Biacore 8K; receptor immobilised on CM5 chip by amine coupling, 25 °C, PBS-P running buffer; analytes with 5% DMSO injected serially; steady-state affinity model
T3 construct: also called Fc-IL-6Rα; IL-6Rα; source: bought: abcam
T3 sequence (looked up): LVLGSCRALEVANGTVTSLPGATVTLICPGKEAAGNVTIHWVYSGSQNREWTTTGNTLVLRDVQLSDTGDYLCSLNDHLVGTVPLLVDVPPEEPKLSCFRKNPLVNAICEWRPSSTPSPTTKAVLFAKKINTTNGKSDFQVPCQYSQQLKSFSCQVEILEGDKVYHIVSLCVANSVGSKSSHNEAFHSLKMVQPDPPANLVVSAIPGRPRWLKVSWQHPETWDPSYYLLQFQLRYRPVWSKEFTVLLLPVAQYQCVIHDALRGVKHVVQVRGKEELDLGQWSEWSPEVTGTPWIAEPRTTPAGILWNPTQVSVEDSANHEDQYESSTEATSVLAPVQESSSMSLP

[3] = target: T4, mouse IL-21 receptor protein with the Fc region of human IgG1 (mouse, UniProt Q9JHX3 20-237); assay: as above
T4 construct: also called IL-21R-Fc; murine IL-21R; source: bought: Sino Biological

[4] = target: T5, murine IL-6 receptor subunit alpha (mouse, UniProt P22272 20-364); assay: SPR; Biacore 8K; receptor immobilised on a CM5 chip by amine coupling, 25 °C, PBS-P running buffer, analytes with 5% DMSO; steady state affinity model
T5 construct: also called mIL-6Rα; IL-6Rα; source: bought: abcam
T5 sequence (looked up): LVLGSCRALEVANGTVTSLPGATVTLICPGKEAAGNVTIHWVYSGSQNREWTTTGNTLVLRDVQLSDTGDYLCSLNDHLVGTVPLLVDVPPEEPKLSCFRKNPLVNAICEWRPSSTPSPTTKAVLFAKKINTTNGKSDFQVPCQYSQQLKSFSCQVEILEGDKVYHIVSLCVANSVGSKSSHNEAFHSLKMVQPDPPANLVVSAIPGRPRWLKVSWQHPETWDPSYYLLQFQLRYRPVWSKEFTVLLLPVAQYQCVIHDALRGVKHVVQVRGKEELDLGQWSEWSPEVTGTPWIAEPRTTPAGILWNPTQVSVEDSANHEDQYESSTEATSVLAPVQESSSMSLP

[5] = target: T5, murine IL-6 receptor subunit alpha; assay: SPR; Biacore 8K; receptor immobilised on a CM5 chip by amine coupling, 25 °C, PBS-P running buffer, analyte with 5% DMSO; 1:1 binding model
murine IL-21 = murine IL-21 (mouse, UniProt Q9ES17 18-146); assay: SPR; Biacore 8K; receptor immobilised on a CM5 chip by amine coupling, 25 °C, PBS-P running buffer, analytes with 5% DMSO; steady state affinity model

B1: salivaricin B (peptide)
peptide: GGGVIQTISHECRMNSWQFLFTCCS
notes: salivaricin B, lantibiotic peptide commonly synthesized by Streptococcus salivarius; chemically synthesized; Molecular weight on the synthesis report is 2805.23; also called SalB; source: synthetic peptide (solid-phase synthesis, RoYo Biotech; HPLC purified, purity more than 96%)
Kd [1]: 354 µM
Kd (murine IL-21 receptor): 12.6 µM

B2: salivaricin B (peptide)
peptide: GGGVIQTISHECRMNSWQFLFTCCS
notes: salivaricin B, lantibiotic peptide commonly synthesized by S. salivarius; Chemically synthesized; also called SalB; source: synthetic peptide (solid-phase, RoYo Biotech; HPLC, purity more than 96%)
Kd [2]: 160 µM
Kd [3]: 10.1 µM

B3: salivaricin A2 (peptide)
peptide: KRGTGWFATITDDCPNSVFVCC
notes: salivaricin A2, lantibiotic peptide commonly synthesized by Streptococcus salivarius; also called SalA2; source: synthetic peptide (solid-phase, RoYo Biotech), HPLC purified, purity more than 96%
Kd [4]: 51.4 µM

B4: murine IL-6 (ligand, mouse, UniProt P08505 25-211, looked up)
chain: FPTSQVRRGDFTEDTTPNRPVYTTSQVGGLITHVLWEIVEMRKELCNGNSDCMNNDDALAENNLKLPEIQRNDGCYQTGYNQEICLLKISSGLLEYHSYLEYMKNNLKDNKKDKARVLQRDTETLIHIFNQEVKDLHKIVLPTPISNALLTDKLESQKEWLRTKTIQFILKSLEEFLKVTLRSTRQT
notes: also called mIL-6
Kd [5]: 0.0137 µM

B5: murine IL-21 receptor (receptor)
chain: not shown
notes: also called mIL-21R; source: bought: Sino Biological
Kd (murine IL-21): 0.0349 nM
